In PMC4937337 one finds Kd data, which are given here for 1 substance.

The subject of this series is nsp1β;PCBP2 (PRRSV (SD01-08)?;human). Nature of the series: EMSA. The following applies: EMSA: 10 mM Hepes pH 7.6, 150 mM KCl, 2 mM MgCl2, 1 mM DTT, 0.5 mM ATP, 5% glycerol, 100 µg/ml porcine tRNA, RNase inhibitor; 10 nM RNA; 30°C 10 min (room …).

Broadly, the Kd is the free concentration of one partner at which half of the binding sites on the other are occupied at equilibrium, for simple one-to-one binding. Lower therefore signals higher affinity. PRRSV -2/-1 PRF RNA wt (58 nt) yielded an equilibrium dissociation constant (Kd) of 130 nM.
